Assay results published in PMC12202928, “Bidirectional interdomain crosstalk in a Porphyromonas gingivalis chimeric enzyme coordinates catalytic synergy for aromatic amino acid biosynthesis” (Frontiers in Microbiology, 2025).

Molecular target: the molecule itself
Assay: SEC; analytical SEC on ENrich SEC 650 calibrated with mass standards; 50 mM BTP pH 7.4, 4°C, protein loaded at 1 mg/mL, 0.2 mL/min; apparent mass compared with theoretical monomer mass

B1: PgiCM (separated CM domain of PgiDAH7PS-CM) (domain or fragment, Porphyromonas gingivalis, UniProt B2RJM7 259-366, looked up)
chain: IPRRQSEKQDEELISWRMQIDQIDESIVELLARRMQVAYEIGLFKKEHNLAVVQNLRYEQLQRNRARTAALLGLDETFISELFSRIHEESVRLQTLAPQKPHTDDCIS
notes: C-terminal part of PgiDAH7PS-CM, Porphyromonas gingivalis, UniProt B2RJM7, split between R258 and I259; theoretical monomer MW 13 kDa; source: E. coli BL21 (DE3), purified (HisTrap HP, TEV digestion, second HisTrap); not shown: His6, N-terminal, cleaved
With B1 the “stoichiometry N” value was 2.

B2: PgiDAH7PS-CM (bifunctional 3-deoxy-D-arabino heptulosonate-7-phosphate synthase / chorismate mutase from Porphyromonas gingivalis) (enzyme, UniProt B2RJM7 1-366, looked up)
chain: MKYCDFTPLPLPSEPNTTVIAGPCSAESEEQIMTTARALRDEAGIRIFRAGLWKPRTLPGCFEGVGETGLPWLVRVQDELDMLATTEVATREHVEQAMQAGIRILWLGARTTSNPFAVQEIADTIGKDESVIVLVKNPISPDLDLWTGALERLRQSGVRQIGAIHRGFSTYATKTFRNPPHWQIPFDLKRRFPSLTILCDPSHITGQRDRIESVSQQAMEMNFDGLIIESHCCPDKALSDASQQITPTVLAQILRRLRIPRRQSEKQDEELISWRMQIDQIDESIVELLARRMQVAYEIGLFKKEHNLAVVQNLRYEQLQRNRARTAALLGLDETFISELFSRIHEESVRLQTLAPQKPHTDDCIS
notes: PgiDAH7PS-CM, Porphyromonas gingivalis, UniProt B2RJM7, 366 amino acid residues; DAH7PS domain 17-253, 11-residue linker, CM domain 265-356; codon-optimised synthetic gene in pET28a; Homodimer by analytical SEC (68 ± 6 kDa against a theoretical monomer of 42 kDa); also called full-length PgiDAH7PS-CM; PgiDAH7PS^WT; source: E. coli BL21 (DE3), purified (HisTrap HP, TEV digestion, second HisTrap); …
B2 was tested, and the “stoichiometry N” value was 2.
